Measurements reported in article PMC12364344.

Molecular target: His6-BacA_(F134R), purified (Asticcacaulis biprosthecum)
Assay: SEC; 500 µl of purified proteins from the polymerization assay on Superdex 200 Increase 10/300 GL, column calibrated with standard proteins

In the case of “His6-BacA_(F134R), purified (natural protein)”, the stoichiometry N is reported as 2.
